Assay results from article doi:10.1101/2021.04.12.439405 (bioRxiv, 2021).
Changes are numbered by the printed parent chain.

Experiments:
[1] = molecular target: T1, MukB^KRK (K1114E, R1122E and K1125E) (E. coli, UniProt P22523 1-1486, K1114E | R1122E | K1125E); test: native gel or EMSA
T1 sequence (looked up): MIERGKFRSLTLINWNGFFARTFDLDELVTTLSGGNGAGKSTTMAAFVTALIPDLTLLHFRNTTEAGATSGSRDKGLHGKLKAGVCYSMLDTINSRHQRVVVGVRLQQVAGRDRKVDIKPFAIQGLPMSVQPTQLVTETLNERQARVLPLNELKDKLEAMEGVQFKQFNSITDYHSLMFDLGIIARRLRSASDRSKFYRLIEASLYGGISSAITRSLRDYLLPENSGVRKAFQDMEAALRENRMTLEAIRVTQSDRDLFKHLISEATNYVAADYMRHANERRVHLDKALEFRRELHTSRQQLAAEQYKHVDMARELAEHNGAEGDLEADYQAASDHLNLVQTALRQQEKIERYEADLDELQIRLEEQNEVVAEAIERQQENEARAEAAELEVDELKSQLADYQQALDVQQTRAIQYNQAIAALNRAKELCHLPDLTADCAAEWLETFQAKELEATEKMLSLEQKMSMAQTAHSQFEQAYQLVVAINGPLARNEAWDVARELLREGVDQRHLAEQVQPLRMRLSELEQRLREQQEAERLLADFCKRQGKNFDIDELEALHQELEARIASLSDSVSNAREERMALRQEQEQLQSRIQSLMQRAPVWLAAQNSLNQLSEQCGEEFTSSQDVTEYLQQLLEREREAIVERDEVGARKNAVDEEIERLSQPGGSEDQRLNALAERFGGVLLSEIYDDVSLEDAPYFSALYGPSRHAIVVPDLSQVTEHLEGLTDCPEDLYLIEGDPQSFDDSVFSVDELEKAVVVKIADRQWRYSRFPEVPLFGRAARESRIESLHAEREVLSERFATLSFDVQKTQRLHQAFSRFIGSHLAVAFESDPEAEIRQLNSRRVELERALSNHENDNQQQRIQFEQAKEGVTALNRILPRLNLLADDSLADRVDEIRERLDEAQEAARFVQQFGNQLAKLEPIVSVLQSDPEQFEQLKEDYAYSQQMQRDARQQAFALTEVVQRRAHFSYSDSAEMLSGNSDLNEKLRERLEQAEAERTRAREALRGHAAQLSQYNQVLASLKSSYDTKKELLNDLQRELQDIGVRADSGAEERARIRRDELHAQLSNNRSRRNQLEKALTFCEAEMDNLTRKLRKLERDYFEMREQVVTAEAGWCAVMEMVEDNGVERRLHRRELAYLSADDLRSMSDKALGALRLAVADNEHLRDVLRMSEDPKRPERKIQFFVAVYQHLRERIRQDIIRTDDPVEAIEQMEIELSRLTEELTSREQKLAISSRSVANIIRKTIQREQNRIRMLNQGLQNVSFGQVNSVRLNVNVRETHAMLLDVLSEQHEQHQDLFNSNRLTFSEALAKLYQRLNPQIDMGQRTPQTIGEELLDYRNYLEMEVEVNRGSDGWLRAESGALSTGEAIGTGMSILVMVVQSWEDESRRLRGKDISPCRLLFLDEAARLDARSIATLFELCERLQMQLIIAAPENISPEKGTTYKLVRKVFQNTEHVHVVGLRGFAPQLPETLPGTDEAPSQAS

[2] = molecular target: T2, MukB-His (wild type MukB) (E. coli, UniProt P22523 1-1486); test: native MS
T2 sequence (looked up): T1 sequence (looked up) with E1114K, E1122R, E1125K

B1: His-MukF (natural protein, E. coli, UniProt P60293 1-440, looked up)
chain: MSEFSQTVPELVAWARKNDFSISLPVDRLSFLLAVATLNGERLDGEMSEGELVDAFRHVSDAFEQTSETIGVRANNAINDMVRQRLLNRFTSEQAEGNAIYRLTPLGIGITDYYIRQREFSTLRLSMQLSIVAGELKRAADAAEEGGDEFHWHRNVYAPLKYSVAEIFDSIDLTQRLMDEQQQQVKDDIAQLLNKDWRAAISSCELLLSETSGTLRELQDTLEAAGDKLQANLLRIQDATMTHDDLHFVDRLVFDLQSKLDRIISWGQQSIDLWIGYDRHVHKFIRTAIDMDKNRVFAQRLRQSVQTYFDEPWALTYANADRLLDMRDEEMALRDEEVTGELPEDLEYEEFNEIREQLAAIIEEQLAVYKTRQVPLDLGLVVREYLSQYPRARHFDVARIVIDQAVRLGVAQADFTGLPAKWQPINDYGAKVQAHVIDKY
B1: binds [1]; binds [2].
